Data on five molecules can be found in patent publication US20190022245A1 (ACADEMIA SINICA, published 2019).

For assay [1], the target named is T1, BSA (control protein coated on ELISA plates) (UniProt P02769 25-607).
T1 construct: also called control BSA protein
Kind of assay: ELISA, BSA-coated plate, graded concentrations. The procedure: The anti-PEG binding specificity of BsAbs was measured by adding graded concentrations of PEG2×TAG72,PEG2×DNS, hCC49 scFv, h6.3Fab×EGFR or h6.3Fab×CD19 in 50 μL 2% skim milk to the mucin, BSA-PEG5000, NH₂-PEG₃ₖ-NH₂ or BSA coated plates at RT for 1 h. The plates were washed with PBS-T (PBS containing 0.05% Tween-20) three times. Rabbit anti-6×His (2 μg/mL) supplemented with HRP-conjugated goat anti-rabbit (2 μg/mL) or HRP-conjugated goat Ig anti human IgG Fab (2 μg/mL) (Jackson ImmunoResearch Laboratories, West Grove, Pa.) in 50 μL dilution buffer were added for 1 h at room temperature. The plates were washed with PBS-T (PBS containing 0.05% Tween-20) three times and with PBS two times. Bound peroxidase activity was measured by adding 150 μL/well ABTS substrate solution (BioLegend, San Diego, Calif.) for 30 min at room temperature. The absorbance (405 nm) of wells was measured in a microplate reader (Molecular Device, Menlo Park, Calif.).
Further, both h6-3Fab×EGFR and h6.3Fab×CD19 BsAbs bound to the NH₂-PEG_{10,000}-NH2, but not to the control BSA protein, indicating their binding specificity toward PEG molecule (FIGS. 14A and 14B). […] The PEG-binding kinetics of h6-3Fab×EGFR and h6.3Fab×CD19 BsAbs were verified by Microscale Thermophoresis (MST) (FIGS. 14D and 14E).
(In general: An ELISA detects its analyte on a solid surface through an enzyme-linked reagent.)

Assay [2] deals with T2, epidermal growth factor receptor (EGFR) on cells (human (on human cell lines), UniProt P00533 25-1210).
T2 construct: whole, on cells
Put plainly: flow cytometry, BsAb on A431 cells then PEG-liposome Texas Red or PEG-Qdot655. The procedure:
PEG2×TAG72 or control PEG2×DNS BsAbs (10 μg/mL) were incubated with A-375(TAG72-), MCF-7(TAG72+), Jurkat (TAG72+) or OVCAR-3(TAG72+) cells at 4° C. for 30 min followed by FITC-labeled goat anti-human immunoglobulin second antibody (2 μg/m L) (Jackson ImmunoResearch Laboratories, West Grove, Pa.) or FITC-labeled 4arm-PEG (2 μg/mL). Tumor-specific targeting of PEGylated compounds was also examined by staining A431 (EGFR^high), and Raji (CD19^high) cell lines with 10 μg/mL of h6.3Fab×EGFR or h6.3Fab×CD19 BsAbs in PBS containing 0.05% BSA (staining buffer) at 4° C. for 30 min. The cells were washed with cold PBS for 3 times. PEG-Qdot655 (8 nM) (Invitrogen, Grand Island, N.Y.) or PEG-liposomal Texas-Red (100 nm size, 50 μM, lipid conc.) (FormuMax Scientific, Palo Alto, Calif.) in staining buffer was added to cells for 30 min at 4° C. […] After washing with cold PBS, the surface fluorescence of 10⁴ viable cells was measured by FACScaliber flow cytometer (Becton Dickinson, Mountain View, Calif., USA) then analyzed with Flowjo (Tree Star Inc., San Carlos, Calif., USA).
Further, both h6-3Fab×EGFR and h6.3Fab×CD19 BsAbs bound to the NH₂-PEG_{10,000}-NH2, but not to the control BSA protein, indicating their binding specificity toward PEG molecule (FIGS. 14A and 14B). […]
(In flow cytometry, cells or beads pass a laser one at a time.)

Assay [3] concerns the target T3, human epidermal growth factor receptor (HER2) on cells (human, UniProt P04626 23-1255).
T3 construct: whole, on cells; also called HER2/Neu; Her2/neu
Kind of assay: flow cytometry on BT-474 cells.

In assay [4] the target is T3, human epidermal growth factor receptor …. Put plainly: culture medium on BT-474 cells (HER2 positive), FITC anti-human Ig. The procedure:
(§1) The binding specificity of monovalent BsAbs with their target proteins was measured by collecting the culture medium of BsAbs producing cells, adding the collected medium to cells that expressed the target protein, then determining the binding by […]. After washing the cells, the bound BsAbs were detected by FITC-labeled goat anti-human immunoglobulin second antibody. […] Thus, monovalent anti-PEG (hE11) BsAbs bound to target cells in an antigen-dependent and selective manner.

For assay [5], the target named is T2, epidermal growth factor receptor (EGFR) …. Kind of assay: culture medium on MDA-MB-468 cells (EGFR positive), FITC anti-human Ig. The procedure:
as §1

Assay [6] has as its target T3, human epidermal growth factor receptor …. Put plainly: flow cytometry, 10 µg/ml BsAb, FITC anti-human IgG; also methoxy-PEG Qdot 655 retained at SKBR3 cells.
The target is the same in assay [7]. Kind of assay: flow cytometry on SKBR3 cells (HER2+), FITC anti-human IgG.

T1 sequence (P02769 25-607 limits assumed): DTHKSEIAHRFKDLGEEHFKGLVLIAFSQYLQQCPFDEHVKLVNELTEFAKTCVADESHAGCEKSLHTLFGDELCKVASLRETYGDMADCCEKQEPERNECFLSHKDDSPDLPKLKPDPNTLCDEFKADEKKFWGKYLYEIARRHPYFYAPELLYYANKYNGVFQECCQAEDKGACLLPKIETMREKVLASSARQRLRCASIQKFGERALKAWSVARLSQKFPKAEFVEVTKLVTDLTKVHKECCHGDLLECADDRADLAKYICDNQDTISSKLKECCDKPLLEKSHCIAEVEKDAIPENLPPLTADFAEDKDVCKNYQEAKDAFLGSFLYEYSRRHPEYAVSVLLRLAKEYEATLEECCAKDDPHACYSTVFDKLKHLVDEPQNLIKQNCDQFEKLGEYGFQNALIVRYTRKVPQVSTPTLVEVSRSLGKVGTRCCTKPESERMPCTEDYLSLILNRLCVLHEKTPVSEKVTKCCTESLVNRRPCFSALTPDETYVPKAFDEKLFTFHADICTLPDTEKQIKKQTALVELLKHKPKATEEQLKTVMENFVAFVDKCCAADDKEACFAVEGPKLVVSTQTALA

B1: h6.3 Fab × CD19 (monovalent anti-PEG (h6.3) anti-CD19 BsAb) (bispecific antibody)
light: DIVMTQSPDSLAVSLGERATINCKSSQSVLYSSNQMNYLAWYQQKPGQPPKLLIYWASTRESGVPDRFSGSGSGTDFTLTISSLQAEDVAVYYCLQYLSSWTFGGGTKLEIKTYSLSSTLTLSKADYEKHKLYACEVTHQGLSSPVTKSFNRGEC
heavy: QVQLVQSGSELKKPGASVKVSCKASGYTFKNYGMNWVRQAPGQGLEWMGWINTYTGQPIYANDFKGRFVFSLDTSVSTAYLQISSLKAEDTAVYYCARDWGPYWGQGTLVTVSSASTKGPSVFPLAPSSKSTSGGTAALGCLVKDYFPEPVTVSWNSGALTSGVHTFPAVLQSSGLYSLSSVVTVPSSSLGTQTYICNVNHKPSNTKVDKRVEPKSCDKVDLVTVSSASTGGGSGQLGGGGSQVQLQESGPGLVKPSQTLSLTCTVSGGSISTSGMGVGWIRQHPGKCLEWIGHIWWDDDKRYNPALKSRVTISVDTSKNQFSLKLSSVTAADTAVYYCARMELWSYYFDYWGQGTLVTVSSGGGGSGGGGSGGGGSEIVLTQSPATLSLSPGERATLSCSASSSVSYMHWYQQKPGQAPRLLIYDTSKLASGIPARFSGSGSGTDFTLTISSLEPEDVAVYYCFQGSVYPFTFGCGTKLEIKRTRHHHHHH
notes: Fab-dsFv; also called h6.3-hBU12
In the case of B1, the binding result in assay [1] is given as “no binding”; in assay [2] it was “no binding (tested: 10 µg/mL)”.

B2: PEG2×HER2 (dimeric humanized anti-PEG (hE11) anti-HER2 BsAb) (bispecific antibody, human IgG1, kappa)
light: DVVMTQSPLSLPVTLGQPASISCRSSKSIVHSNGNTYLEWFQQRPGQSPRRLIYKVSKRMSGVPDRFSGSGSGTDFTLKISRVEAEDVGVYYCSQGSHVPPTFGGGTKVEIKRTVAAPSVFIFPPSDEQLKSGTASVVCLLNNFYPREAKVQWKVDNALQSGNSQESVTEQDSKDSTYSLSSTLTLSKADYEKHKLYACEVTHQGLSSPVTKSFNRGEC
heavy: not shown
notes: also called PEG2×HER2 BsAbs
B2: in assay [3], the binding result is on record as “binds”.

B3: PEGxTAG72 (monovalent anti-PEG (hE11) Fab fused to anti-TAG72 scFv, example 2.1) (bispecific antibody)
light: B2 light
heavy: QVQLVQSGAEVKKPGASVKVSCKASGYTFTTYTMNWVRQAPGQGLEWMGYIIPSSGYVDYNQKFKGRVTMTRDTSTSTVYMELSSLRSEDTAVYYCVRSLDGYFWFAYWGQGTLVTVSSASTKGPSVFPLAPSSKSTSGGTAALGCLVKDYFPEPVTVSWNSGALTSGVHTFPAVLQSSGLYSLSSVVTVPSSSLGTQTYICNVNHKPSNTKVDKRVVDLVTVSSASTGGGSGQLGGGGSQVQLVQSGAEVKKPGASVKVSCKASGYTFTDHAIHWVRQAPGQCLEWMGYFSPGNDDFKYSQKFQGRVTITADKSASTAYMELSSLRSEDTAVYYCARSWIMQYWGQGTLVTVSSGGGGSGGGGSGGGGSDIVMTQSPDSLAVSLGERATINCKSSQSVLYSSNNKNYLAWYQQKPGQPPKLLIYWASTRESGVPDRFSGSGSGTDFTLTISSLQAEDVAVYYCQQYYSYPLTFGCGTKVEIKTRHHHHHH
notes: Tested as culture medium of producer cells; also called PEG×TAG72; monovalent anti-PEG (hE11) BsAb
Regarding B3, the binding result in assay [4] and in assay [5] was “no binding” throughout.

B4: 15-2b knob/anti-HER2 hole (knob in hole anti-mPEG (h15-2b) anti-HER2 BsAb) (bispecific antibody)
light 1: DIQMTQSPSSLSASVGDRVTITCKASQDVNTSVAWYQQKPGKAPKLLIYWASTRHTGVPSRFSGSGSGTDFTFTISSLQPEDIATYYCLQYINYPYTFGQGTKLEIKRTVAAPSVFIFPPSDEQLKSGTASVVCLLNNFYPREAKVQWKVDNALQSGNSQESVTEQDSKDSTYSLSSTLTLSKADYEKHKLYACEVTHQGLSSPVTKSFNRGEC
heavy 1: not shown
light 2: QSVLTQPPSVSAAPGQKVTISCSGSSSNIGNNYVSWYQQLPGTAPKLLIYDHTNRPAGVPDRFSGSKSGTSASLAISGFRSEDEADYYCASWDYTLSGWVFGGGTKLTVLGSSASTKGPSVFPLAPSSKSTSGGTAALGCLVKDYFPEPVTVSWNSGALTSGVHTFPAVLQSSGLYSLSSVVTVPSSSLGTQTYICNVNHKPSNTKVDKKV
heavy 2: not shown
notes: Four different chains; also called h15-2b-knob/anti-HER2-hole; h15-2b-knob/anti-Her2-hole; not shown: HA tag fused at the N terminal of the hole heavy chain
For the molecule B4, in assay [6], the binding result is given as “binds”.

B5: 15-2b knob/Bu12 hole (knob in hole anti-mPEG (h15-2b) anti-CD19 BsAb) (bispecific antibody)
light 1: B4 light 1
heavy 1: not shown
light 2: EIVLTQSPATLSLSPGERATLSCSASSSVSYMHWYQQKPGQAPRLLIYDTSKLASGIPARFSGSGSGTDFTLTISSLEPEDVAVYYCFQGSVYPFTFGQGTKLEIKRSSASTKGPSVFPLAPSSKSTSGGTAALGCLVKDYFPEPVTVSWNSGALTSGVHTFPAVLQSSGLYSLSSVVTVPSSSLGTQTYICNVNHKPSNTKVDKKV
heavy 2: not shown
notes: Four different chains; also called h15-2b-knob/BU12-hole; h15-2b knob+BU12-hole; not shown: HA tag fused at the N terminal of the hole heavy chain
Regarding B5, in assay [7], the binding result is “no binding (tested: 10 µg/ml)”.
